Experimental findings from the supplement of paper PMC12764529 are described below.

± gives the half width of the 95% confidence interval.

Data set [1] is described as follows: folding stability dG unfold from chymotrypsin proteolysis; higher = more stable. In outline: (§1)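 Digests were run with trypsin and chymotrypsin at 11 concentrations in threefold dilutions, plus a no-protease condition, on designed mini-proteins in a PA-tagged cDNA display construct. The mini-proteins were under 80 residues, had no cysteine, and were kept only when AlphaFold2 dimer inter-PAE was above 15. After sequencing, Bayesian fitting of the counts gave K50, from which unfolding free energy was derived against a sequence-predicted unfolded-state K50 and a shared folded-state K50, per protease or combined.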

Data set [2] is described as follows: folding stability dG unfold (combined trypsin and chymotrypsin); higher = more stable. In outline:
as §1

A short description of data set [3]: folding stability dG unfold from trypsin proteolysis; higher = more stable. An outline of the steps:
as §1

For the sequence “SAGGPDWKTVEVEIQVKDPEDRPEAIEEAEEWAQELAENNPGYKIKGVDVEIWPHNGWYQIRIPITVESAGG [r13_305_TrROS]”, the “folding stability dG unfold” value in data set [1] was determined as 1.01 ± 0.21 kcal/mol; in data set [2], 0.79 ± 0.19 kcal/mol; in data set [3], 0.733 ± 0.1 kcal/mol.
The like results for “SAGGPDWQTIRITFWFDSPEDAEEEVRNIARTMGLPPEGIKVEITDFEPREVNGKNYYMVEAEITIPSAGGS [r16_240_TrROS]” were, in that order, 4.274 ± 0.035 kcal/mol, 3.93 ± 0.062 kcal/mol and 2.95 ± 0.044 kcal/mol.
“SAGGPEELELTLSIDYPDLTPEQAAEEARRLLEGLGFEVKEIPVTVEPGPGKVTVRARVTVLPPEERSAGGS [r16_287_TrMRF]”: the “folding stability dG unfold” value in data set [1] was found to be 1.21 ± 0.05 kcal/mol; in data set [2] it was 1.06 ± 0.17 kcal/mol; in data set [3], 0.859 ± 0.12 kcal/mol.
With “SAGGPFDDFEPLGTIPFKVNGMEIEIQIWRMKNPGHYMVDIRNPGFGIPVMYWVPPGDIEEILDLIRSAGGS [r8_469_TrROS]”, the “folding stability dG unfold” value in data set [1] turned out to be 3.1 ± 0.059 kcal/mol; in data set [2], 2.7 ± 0.14 kcal/mol; in data set [3], 2.22 ± 0.078 kcal/mol.
As to “SAGGPFRVRISDEVIKELKKQGLKPGKKSVKITMQYPNGWVFRGTIKIPPANPKIPLKAEPVERLDDSAGGS [r16_497_TrROS]”, the “folding stability dG unfold” value in data set [1] came to 0.386 ± 0.17 kcal/mol; in data set [2], 0.482 ± 0.11 kcal/mol; in data set [3], 0.429 ± 0.074 kcal/mol.
“SAGGPGWVTVEFWIPIEPDPNQTRDDVKEKAEEIVHEMAEYHPQFGITNVKVDVDPEEGWVKVSIVWPSAGG [r13_1011_TrROS]”: the “folding stability dG unfold” value in data set [1] worked out at 1.58 ± 0.15 kcal/mol; in data set [2], 1.49 ± 0.24 kcal/mol; in data set [3], 1.47 ± 0.16 kcal/mol.
For the sequence “SAGGPGYNINIDVKIYPDPNDNHFVIEVKITIMPMEPDPDDGGWKQRSRTVPQEILLPPGESAEDIFSAGGS [r8_323_TrROS]”, the results for the “folding stability dG unfold” value in data set [1], in data set [2] and in data set [3] were 1.86 ± 0.1 kcal/mol, 2.62 ± 0.13 kcal/mol and 3.19 ± 0.17 kcal/mol, respectively.
Consider “SAGGPITITYDEETGVLTITITVPSLEEAEALIKALLPPGAEATRITVERNEDGSVTVTVEIRLPKGLSAGG [r13_338_TrROS_Hall]”, for which the “folding stability dG unfold” value was 1.49 ± 0.024 kcal/mol in data set [1], 2.31 ± 0.062 kcal/mol in data set [2] and 2.99 ± 0.08 kcal/mol in data set [3].
For “SAGGPKIKIEAFPDGTVKITIELPDGVTIVIELKFDPETGTVHAKITLLPKDKPVTFEFTFKIPPDASAGGS [r16_230_TrMRF]”, in that order: 4.34 ± 0.11 kcal/mol, 4.29 ± 0.41 kcal/mol and 3.34 ± 0.35 kcal/mol.
As for “SAGGPKKRKWVTFTIDIYIPTPPGQSIEDEARKLAENLGIEITDVEVEPHPNGMVKIDVTVTIWIPYSAGGS [r8_292_TrROS]”, the “folding stability dG unfold” value in data set [1] was 4.37 ± 0.097 kcal/mol; in data set [2], 3.91 ± 0.13 kcal/mol; in data set [3], 2.84 ± 0.062 kcal/mol.
As for “SAGGPKLFVEEDPVEDGVVVVVETNADPVALLKALEKLFGRPVKDVRFERLPDGRLIAVARIPKDALSAGGS [r16_605_TrMRF]”, the “folding stability dG unfold” value in data set [1] was found to be 2.676 ± 0.016 kcal/mol; in data set [2] it was 2.47 ± 0.045 kcal/mol; in data set [3] it was 2.05 ± 0.043 kcal/mol.
For “SAGGPKPILILPKNGKTETIPVPESMTLEEIIEIVKKAAEKYGFEKISYDPEKKVVTVYLKGKVIVTGSAGG [r13_572_TrMRF]”, in that order: 2.625 ± 0.017 kcal/mol, 2.27 ± 0.064 kcal/mol and 1.25 ± 0.015 kcal/mol.
As to “SAGGPKTIMAMIPRDSPELRKALKWLEKAPPGEEVELKLPGKPIRITNIQPVDDWWMFSVKIPPGLKSAGGS [r16_404_TrROS]”, the “folding stability dG unfold” value came to 0.462 ± 0.31 kcal/mol in data set [1], 0.885 ± 0.19 kcal/mol in data set [2] and 1.52 ± 0.16 kcal/mol in data set [3].
On to “SAGGPKVEIVDITVTEEEVNGKKKKTVTVKVKLENGETLTITMSEEELKKLGLSVEEIAKKLAKKLKSAGGS [r16_625_TrROS_Hall]”, for which the “folding stability dG unfold” value amounted to 2.38 ± 0.044 kcal/mol in data set [1], 2.09 ± 0.15 kcal/mol in data set [2] and 1.54 ± 0.035 kcal/mol in data set [3].
For “SAGGPKVIVTDPNGVKHEFENLSIPELLSSLPKNGTPILKIEIPLFNPELGGEEPLELEFIFPPELFSAGGS [r16_806_TrMRF]”, the “folding stability dG unfold” value was -0.417 ± 0.19 kcal/mol in data set [1], 0.107 ± 0.083 kcal/mol in data set [2] and 0.321 ± 0.017 kcal/mol in data set [3].
“SAGGPKVYLTDIVTTLPDGTVVMIGEIELPDGTPLIAITTIYKDGTVKVFIYDPNGKLIAEIEIKPKPSAGG [r13_903_TrMRF]”: the figures for the “folding stability dG unfold” value in data set [1], in data set [2] and in data set [3] were 3.09 ± 0.032 kcal/mol, 2.78 ± 0.064 kcal/mol and 2.15 ± 0.085 kcal/mol, respectively.
For “SAGGPLSEEELEALRKALEAARAAGAETVTLTATLTVTRTVTLPDGSTRTETRTLTLTLTVTLPPEESAGGS [r8_203_TrROS_Hall]”, the “folding stability dG unfold” value turned out to be 4.73 ± 0.079 kcal/mol in data set [1], 4.45 ± 0.12 kcal/mol in data set [2] and 3.74 ± 0.1 kcal/mol in data set [3].
For “SAGGPLVVEAKVEGDTVTIRLPNGEEFTAHPDATLFLPNGERVFFEPVSDDVVIATVVPLPEDAEFPSAGGS [r16_277_TrMRF]”, in that order: -0.0303 ± 0.13 kcal/mol, 0.212 ± 0.085 kcal/mol and 0.359 ± 0.034 kcal/mol.
